Data as given in the DeepSol protein solubility set.

Experiment: soluble on expression in E. coli; label from the status in PepcDB or PDB records

| Sequence | soluble on expression in E. coli |
| --- | --- |
| MEQEAERRRQPQIKQEPESEEEEEEKQEKEEKREEPVEEEEEPEQKPCLKPTLRPISSAPSVSSASGNATPNTPGDESPCGIIIPHENSPDQQQPEEHRPKIGLSLKLGASNSPGQPNSVKRKKLPVDSVFNKFEDEDSDDVPRKRKLVPLDYGEDDKNATKGTVNTEEKRKHIKSLIEKIPTAKPELFAYPLDWSIVDSILMERRIRPWINKKIIEYIGEEEATLVDFVCSKVMAHSSPQSILDDVAMVLDEEAEVFIVKMWRLLIYETEAKKIGLVK | soluble |
| MERGQSLALQSNRNRPYMIRIIQPILRSERRRKLGREYFILHRKLSDCFSSIKWALPAKGDNSHGCSYPVMEHRSLIMRRLKDVDMYMQENKRTNLRLAISKLHGMIIRPGETFSVWRHVGRPTARKGYLEGLVLSQGKIGKGVGGGLCQLGNLLFWMFAHTPLSIVERHRHSFDVFPDINRSIPFGAGATLSYNYIDLRVSNNTPHTYRLELWLDDTHLNGRISSDTEQRDRYRIEETDHRIEHQSWGGYTRHNKLVRIVTRADGSEYTEPFVENHAIMMYNPLLSPPQNGASTSFQR | not soluble |
| MERGVDNWKVDCKCGTKDDDGERMLACDGCGVWHHTRCIGINNADALPSKFLCFRCIEL | soluble |
| MERKISDEECPVRKSMQIFAGKWTLLIIFQINRRIIRYGELKRAIPGISEKMLIDELKFLCGKGLIKKKQYPEVPPRVEYSLTPLGEKVLPIIDEIAKFGMENL | soluble |
| MERTVKLRVKVDYSTYSALKEVEKEYREVLEDAINYGLSNKTTSFTRIKAGVYKTEREKHKDLPSHYIYTACEDASERLDSFEKLKKRGRSYTEKPSVRRVTIHLDDHLWKFNLDTISISTKRSRILISPTFPKIFWRYYNTEWRIASEARFRLMKGNVVEFYVIFKRDEPKPYEPKAFIPVDLNENSVSVLINSKPLLLETNTKKITLGYEYRRKAITTGKSTKDREVRRKLKRLRERNKKVDIRRKLAKLIVKEAFESRSAIVLEDLPRRTPEHMIKDVKDKQLRLRIYRSAFSSMKNAIIEKAREFGVPVVLVNPSYTSTVCPIHGANIVYQLDGGDAPRVGVCEKGKEKWHRDVVALYNLARRAGDVSPVPLGSKESHDPPTLSGWLRAKSLHSIMNEHKMIEMKVLEHHHHHH | soluble |
| MESEFLYDLLQLPKEVAQPTEEELPRGGKKKYLSPNSKRNPKFEELQKVLMEWINTTLLPEHIVVRSLEEDMFDGLILHHLFQKLASLKLEVEEISLTSASQRHKLGVILEAVNQNLQVEEKQAKWSVETIFNKDLLATLHLLVALAKRFQPDLPLPDNVQVEVIHIESTKTGLKSDKQVEQLTECKSHKDQPLQDAFDELFKLAPEKVHAVQEAIVSFVNQKLERLGLSVQSLDTQFADGVILLLLIGQLEGFFLHLTEFYLTPSSPTEMLHNVTLALDLLKDEGLFSYPVNPEDIVNKDAKSTLRILYSLFQKHSLRAEGGGAHHATPN | soluble |
| MESELSGISNENQISFFGFSAGSFSDSIFNIYVDAWEEVCSNEFKNSLKKLTDKDRLCLLSFPFSDKTNEKAFKMMKRFCVTNIFRIPASVTLPECKKMLIASAKEHKSLKQVEKEFDEKLEKIRQLRIKLAKRHDELEAVNNAIEVLHVMEKSQEQLISQKRIVPDSPTRMSPV | not soluble |
| MESIFHEKQEGSLCAQHCLNNLLQGEYFSPVELSSIAHQLDEEERMRMAEGGVTSEDYRTFLQQPSGNMDDSGFFSIQVISNALKVWGLELILFNSPEYQRLRIDPINERSFICNYKEHWFTVRKLGKQWFNLNSLLTGPELISDTYLALFLAQLQQEGYSIFVVKGDLPDCEADQLLQMIR | soluble |
| MESTKSYDIPILRNVSRSFSVHYRDYLQRCGIFVPKEGNSSGPDAYVVFHNGQTRYVVGFSFKFYHKSEFSKRNIEEEAKKFFKGVVSVLNDESFSSVQLRFQFVMVVCTSYGRSVVFSSEEQNIVEDASYLVTEHSSGSTLNESSRSCLQLVIVSQRNLEMYLGRDNVETLRKIGEASREEFSKDFSVWCETVFESMSNEYVSPLEQSNVTLRVARNIRPRTNEENRMQIEELQTAMKVERSVAASSSLSSSFDWNTFLREYCGLSEEDVAYCLPKVEDIDMDELPAVTKEILRDLGIDKPALRLKIRSSIRSYLANER | soluble |
| METDGDPTNEIPGSSMAFEVANHTVTEEPSPLDRILAEGRSFNGGNWSSDDLRSLLDGVMKYGTKIEAINYIHRNIVKKRSIEEIKAKIDEIREIIKEHKEIILPECYKNKWIEAGHHNITPPPFCQVDPNDDWSSIMGKIVDHHHGSINKTLPSLRDTYETLFENLALESKTHENAVVTKLLTAKATRTDSQNIRWPVIYRFMKACATLEEQMPALNELEAAVVSKVLDTIETEATTTPDTEKSILAGIFSECQQGNYRFCEQDYPPNVMAAVQLFVDPLRTRFHAIPEVASEVELINFTKDNQPSTSSN | not soluble |
| METFYTIGRSPRADIRIKSQFVSRIHAVLVRKSSDDVQAAYRIIDGDEDGQSSVNGLMINGKKVQEHIIQTGDEIVMGLEHHHHHH | not soluble |
| METIWIPHLHTALAYMHERFLELFILPDSCPSKKLEELQQKEGN | not soluble |
| METKYAFARQIIKEAGLFIKSKMSEQLDIQVKTQFDDLVTNVDQETQQLLMDRIHQTYPCDAILAEENDVRHPINQGNVWVIDPIDGTVNFIVQGSQFAVMIAYYEQGIGQFGLIYDVMADQLLAGGGDFEVTLNGDKLPAYQEKPLERSLIGCNAGMFARNDRNLAHLIAKTLGVRVYGGAGICMVKVMKQELLAYFSFIQPWDYAAAKVLGDKLGYVLLTIDGYEPDFQTRQKIMFVPKCQLTRIASFLTKDSAITLEDQ | not soluble |
| METNIVEVENFVQQSEERRGSAFTQEVKRYLERYPNTQYVDVLLTDLNGCFRGKRIPVSSLKKLEKGCYFPASVFAMDILGNVVEEAGLGQEMGEPDRTCVPVLGSLTPSAADPEFIGQMLLTMVDEDGAPFDVEPRNVLNRLWQQLRQRGLFPVVAVELEFYLLDRQRDAEGYLQPPCAPGTDDRNTQSQVYSVDNLNHFADVLNDIDELAQLQLIPADGAVAEASPGQFEINLYHTDNVLEACDDALALKRLVRLMAEKHKMHATFMAKPYEEHAGSGMHIHISMQNNRGENVLSDAEGEDSPLLKKMLAGMIDLMPSSMALLAPNVNSYRRFQPGMYVPTQASWGHNNRTVALRIPCGDRHNHRVEYRVAGADANPYLVMAAIFAGILHGLDNELPLQEEVEGNGLEQEGLPFPIRQSDALGEFIENDHLRRYLGERFCHVYHACKNDELLQFERLITETEIEWMLKNA | soluble |
| METSTIIDGGTSFVIDSEKKTITIYVKTADGSSVKAEGCTETVIESGTESTLNIKSSLIILKGNIIEFNCGGDPYTYGNQIKSLNVQGLKNLEKLNCSGNRLTELNIEGLNNLKELACRYNRLSSLDVAHLPALEFLWCTANLLTDLNLTGMSSLKRLGCNNNKLEVLNLEGLTSLEHLWCGNNLLNKLNLTDLKSLTGLNCEKNKLTELDLTGLTALEHLWCSKNLLTKLNLTKALHLQSLDCSSNMLTELNTEELNDLQYLNSSGNCLPLS | not soluble |
| MEVAPSFSSVLKDCAVIEGQDFVLQCSVRGTPVPRITWLLNGQPIQYARSTCEAGVAELHIQDALPEDHGTYTCLAENALGQVSCSAWVTVH | soluble |
| MEVDCRVISRGKGRGPVLVSTEPLSFLGGVDPGTGRVIDQKHPLHGRSIRGKVLLIPGGKGSTVGSYVIFQMAKNETAPAAIICLNAEPIIATGAIMAGIPMVDRPSEDLLGLLEDSMEVEVDADEGKIRF | soluble |
| MEVITFESEAYKALVGKIEKIAGYVAEAQLPSEEKKETWLDSNQLAEALGISTRTLQRLRDENLISYSMLRGRCMYKLSEVERCLEERTIRCKPQTLEDFRKNYLTRTGNDKKG | not soluble |
| MEVKIFNTQDVQDFLRVASGLEQEGGNPRVKQIIHRVLSDLYKAIEDLNITSDEYWAGVAYLNQLGANQEAGLLSPGLGFDHYLDMRMDAEDAALGIENATPRTIEGPLYVAGAPESVGYARMDDGSDPNGHTLILHGTIFDADGKPLPNAKVEIWHANTKGFYSHFDPTGEQQAFNMRRSIITDENGQYRVRTILPAGYGCPPEGPTQQLLNQLGRHGNRPAHIHYFVSADGHRKLTTQINVAGDPYTYDDFAYATREGLVVDAVEHTDPEAIKANDVEGPFAEMVFDLKLTRLVDGVDNQVVDRPRLAV | soluble |
| MEWTEEIVSKGFALYVALSKKGFITSKEDEYFQWYEERGVQDFIRKVIEPTGKVMIFLDEQDGVIQMVPEVENETMSYTNDDLKKELGFKDNKEIHLFYFILFILIAELEQPYDTESADRMYLPMDELLDKMNGYIEQYERLGEEKLEELSDEYDVDVAGIVEAWGRMADFKEGATSHIRTKDNRRMYIEKTLKFLEKEKLIRIREHTNISVTNKMKNIISHYYHNVENKSKIHDLLLVTREGTVGEEEE | not soluble |
| MEYDVYVRVSKEDVHLLNYLLEVEEHMFNIRKYEDGVLKIITPFPEEAIKLLEGCKEMVDLEILEVKENPGEA | soluble |
| MEYFNVGKIVNTQGLQGEMRVLSVSDFAEERFKKGSQLALFDDKDRFVQEVTIVSHRKQKHFDIIKFKDMYHINAIEKYKGYTLKVSKDNQGDLQEGEFYYHQIIGMAVYEKDVLIGHVKEILQPGANDVWIVKRQGKRDLLLPYIPPVVLNVDVPNKRVDVELMEGLDDEDLEHHHHHH | soluble |
| MEYGIVYLLTNPVMPGLVKIGMTTQEGIDKRMKELYTTGVPIPFECKFACKVKKSDCLKIEKALHKAFDPQRINQNREFFRINVEQAQAILELFHHEDVTEEVTDEIQNDLTDEDKAASTKAQAKRPPLNFYEMGLQKGDILIWKDDPSISVTVLSERKVCYEGEETSISALSAKLKGYKVKHIQPTPHWFFNDRSLSEIYDETYPFEE | not soluble |
| MEYHMGNTMTKAIYDKFKSATPYGNKVATGPTPTEAVDITVSVGGFKVGDQNYPINPKITFTNNTGQAIPGGTEFQFDIPVSAPDNAKDQSGGGLKVIASGHTRANNIGGLDGVMHRVSFSLPAWKDLPAGGTYELDMVYYLPISGPANYSVISGGKEFAFKFEQPDLPIGDLNALEHHHHHH | soluble |
| MEYPRVMIRFAVIGTNWITRQFVEAAHESGKYKLTAVYSRSLEQAQHFANDFSVEHLFTSLEAMAESDAIDAVYIASPNSLHFSQTQLFLSHKIHVICEKPLASNLAEVDAAIACARENQVVLFEAFKTACLPNFHLLRQALPKAGKLRKVFFNYCQYSSRYQRYLDGENPNTFNPAFSNGSIMDIGFYCLASAVALFGEPKSVQATASLLASGVDAHGVVVMDYGDFSVTLQHSKVSDSVLGSEIQGEAGSLVIEKLSECQKVCFVPRGSQMQDLTQPQHINTMLYEAELFATLVDEHLVDHPGLAVSRITAKLLTEIRRQTGVIFPADSVKLYLPK | not soluble |
| MEYSYIPSAALYNNADIFQFFPRNKRLNSHQKSRLDEHARKMAAFMMERQEEYRYYENLANQEQFSDDNGMESGFCSGATSTGQSASTSPAPVQLIPNPFFDPEYVAAKTQSPVKLVTNPFFNPELVEEIKKKSQKRNEKSAPVSA | not soluble |
